# Assay results taken from the supplement of paper PMC9170038.
# What was measured:
# MS2 coat protein [1] = assay: apparent KD of MS2 coat protein; higher = weaker reporter binding; details: Eterna round: R101
# Protocol: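 RNA-MaP: designed FMN/MS2 RNA switches (84 nt design region) are transcribed on-chip within common flanks and titrated with SNAP-549-labelled MS2 coat protein (about 1-3000 nM) in 100 mM Tris pH 7.5, 80 mM KCl, 4 mM MgCl2, without or with 200 uM FMN. Median apparent KD per design; activation ratio = KD,OFF / KD,ON.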
# MS2 coat protein [2] = assay: apparent KD of MS2 coat protein, switch ON state; designed switch direction (-1 OFF switch, 1 ON switch): 1; higher = weaker reporter binding; details: FMN input: 0 or 200 uM; Eterna round: R93 (includes R88 designs)
# Method in brief: (§1)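 Values are apparent KD, taken as the median for each design of fits to normalised binding curves from individual clusters. The designed RNA switches were transcribed on-chip from Illumina sequencing clusters and exposed to SNAP-549-labelled MS2 coat protein at twofold increasing amounts from 0.7 or 1.5 nM to 3 µM. Titration used 100 mM Tris-HCl pH 7.5, 80 mM KCl and 4 mM MgCl2, without or with constant ligand.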
# MS2 coat protein [3] = assay: apparent KD of MS2 coat protein, switch OFF state (with FMN for OFF switches, without FMN for ON switches); designed switch direction (-1 OFF switch, 1 ON switch): 1; higher = weaker reporter binding; details: FMN input: 0 or 200 uM; Eterna round: R93 (includes R88 designs)
# Method in brief: as §1
Sequence,apparent KD of MS2 coat protein (MS2 coat protein [1]; input ligand: FMN 200 uM) [µM],apparent KD of MS2 coat protein (MS2 coat protein [1]; input ligand: none) [µM],apparent KD of MS2 coat protein (MS2 coat protein [2]) [µM],apparent KD of MS2 coat protein (MS2 coat protein [3]) [µM]
GCCAUCGCAUGAGGAUAUGCUCGGGUUUCCCGAGCAGAAGGCAUGUCAUAAGACAUGAGGAUCACCCAUGUAGUUAAGAUGGCA [#HiddenHairpinInALoop - Mat - Same State NG 1 - JL mod - D3] (puzzle (switch architecture): Same State NG 1),0.0127,0.289,,
UAUUAUAUGGAGAAGGACAUGAGGAUCACCCAUGUCGCCGGGCCCGGGAAACCGGGCCCGGCCAUGUAGGAUAUCCAUAUGGUA [#This is a good prank 6] (puzzle (switch architecture): Inverted Exclusion NG 2),0.00541,0.00478,,
AAGUACAAGCAGAAGGCACAUGAGGAUCACCCAUGUCGGGCGUCCUGUAAGUGAGGAUAUGCUAAGUGACGGCCGCCUUGGCGG [Adienare] (puzzle (switch architecture): Inverted Small Loop Exclusion NG 1),0.0226,0.383,,
UCAGUAGAGUCAGGAUAUACAAAAGGCGAUCCAUACAUGAGGAUCACCCAUGUAGAAGGGACUCUACUGUAAGUCGGAAACGAC [#StaticStemDeletion - Eli x2 4.003] (puzzle (switch architecture): Small Loop Exclusion NG 1),0.0116,0.165,,
CACCUAAAUCCUAGAGGAUCACCCUAGGAUAUCACCGUCGAGGUGCCAUAAUGGCACCUCGACGGUGAGAAGGAGGAAAAAUAA [#SharedSequence - SLExNG3: 10] (puzzle (switch architecture): Small Loop Exclusion NG 3),0.00585,0.00495,,
AAUAAAAUUCUAGGAUAUGACUCCGAAACGGAGUCAGAAGGAGGAUCACCCUUUCAAAGCUCAGCGUCGAAAGACGCUGAGCAA [#SharedSequence - ExNG1-19] (puzzle (switch architecture): Exclusion NG 1),1.16,0.155,,
GUUGGAUUUCAGAAGGGCUCCAGCAAAGCUGGAGCAGGAUAUGAGGAUCACCCAUAUCAAUCUCCAGAAUUGAUAUGAAUCAAU [#SharedSequence - IExNG1: 9-1] (puzzle (switch architecture): Inverted Exclusion NG 1),0.317,0.0292,,
GGUCGUCACAUUAACAUGAGGAUCACCCAUGUCAAAAGACAUGAGGAUAUGCAUCCUAAUUGGAUGCAGAAGGCAUGGACGACC (puzzle (switch architecture): Same State NG 3),0.0125,0.216,,
CGCAUAGACAUGAGGAUCACCCAUGUAUAAAUAGGAUUAACGUAGGAUAUGCAGAAGAUUAAAGUGCAGAAGGACGGCUUUGCG [JR #DistanceFar #NP SSNG3 Sub070] (puzzle (switch architecture): Same State NG 3),0.00752,0.0115,,
GGAGAAACAUGAGGAUCACCCAUGUAGGAUAUCGGGCCCGGGCCCGGCGAAAGCCGGGCCCGGGACGAGAAGGGCGUAAACACC [#LOL] (puzzle (switch architecture): Small Loop Exclusion NG 3),0.00872,0.00874,,
AGAAUAAAAAGAGAGGAUAUCCAUAAGAAAACAUGAGGAUCACCCAUGUGAAAGAUAAUAAAAUGGGAGAAGGCUCAAAAUAAGA [Topaz 45],,,0.021,0.0202
UCGUCCUCGUGCUAGGAUAUCCAUCGUAAAACAUGAGGAUCACCCAUGUAGAAAUGCGCCGACGAGGAGAAGGAGCGAUGUGGAU [Lazabima],,,0.0145,0.0185
UAUCCGGCAGUGUAGGAUAUGUUGUAGUAAACAUGAGGAUCACCCAUGUGGAUUAUAUAAGAUUCACAGAAGGGCACUGCAUUGC [Laonis],,,0.265,0.226
